Assay: yeast display, Sf9 membrane polyspecificity reagent, FACS + sequencing; frameworks hold sequencing errors
How it was run: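 A nanobody's polyreactivity label depends on the gate it was sorted from. Yeast display cells were stained with 10% biotinylated, detergent-solubilized Sf9 membrane reagent for 1 hour at 4 °C, enriched on streptavidin microbeads and sorted by FACS. The low and high (top ~1%) gates were set on anti-HA fluorescence for expression and streptavidin fluorescence for reagent binding.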

| Sequence | polyreactivity (PSR sort gate) |
| --- | --- |
| QVQLVESGGGLVQAGGSLRLSCAASGRTFFTNTMGWYRQAPGKERELVAAITRSGASTYYADSVKGRFTISRDNAKNTVYLQMNSLKPEDTAVYYCAAQRSKYSTVGKYGYWGQGTQVTVSS | high polyreactivity |
| QVQLVESGGGLVQAGGSLRLSCAASGIIFGTNAMGWYRQAPGKERELVAGITSSGDSTYYADSVKGRFTISRDNAKNTVYLQMNSLKPEDTAVYYCAAYSGVGFLWFDYWGQGTQVTVSS | low polyreactivity |
| QVQLVESGGGLVQAGGSLRLSCAASGSTFNRNTMGWYRQAPGKERELVASINRGGSTYYADSVKGRFTISRDNAKNTVYLQMNSLKPEDTAVYYCAKRVRKSYTGTQAPKKFGYWGQGSQVTVSS | low polyreactivity |
| QVQLVESGGGLVQAGGSLRLSCAASGSTFPWYAMGWYRQAPGKERELVASITSGTTTNYADSVKGRFTISRDNAKNTVYLQMNSLKPEDTAVYYCAASWVYPYDYWGQGTQVTVSS | low polyreactivity |
| QVQLVESGGGLVQAGGSLRLSCAASGVTFTYYAMGWYRQAPGKERELVAAISKSGGRTYYADSVKGRFTISRDNAKNTVYLQMNSLKPEDTAVYYCAARITREGYYWGQGTQVTVSS | high polyreactivity |
| QVQLVESGGGLVQAGGSLRLSCAASGSIFVQNAMGWYRQAPGKETELVAVINSGDSTNYADSVKGRFTISRDNAKNTVYLQMNSLKPEDTEVYYCAVDDVSYYYLRAYNYELSWYGSGLDYWGQGTQVTVSS | low polyreactivity |
| QVQLVESGGGLVQAGVSLRLSCAASGRTFTSYPMGLYRQAPGKERELVAAISSRGGSTSYADSVKGRLTISRDNANNTVYLQMNSLKEEDTAVYYCARRIRQQRFGGNYWGQGTQVTVSS | high polyreactivity |
| QVQLVESGGRLVQAGGSLRLSCAASGRTFPYNAMGWSRQAPRKERELVAAITWSGGSTYYADSVKGRFTISRDNAKNTVYLQMNSLKPEDTAVYYCAADEIYGYDYWGQGTQVTVSS | high polyreactivity |
| QVQLVESGGGLVQAGGSLRLSCAASGGTYRVKAMGWYRQAPGKEREFVAAISGSGSSTYYADSVKGRFTISRDNAKNTVYLQMNSLKPEDTAVYYCAARSCVGGDNDYWGQGTQVTVSS | low polyreactivity |
| QVQLVESGGGLVQAGGSLRLSCAASGNTIIRYAMGWYRQAPGKERELVAAISYSGGRTYYADSVKGRFTISRDNAKNTVYLQMNSLKPEDTAVYYCAARYYPSGYRKKMYYWGQGTQVTVSS | high polyreactivity |
| QVQLVESGGGLVQAGGSLRLSCHASGRIIVPYVMGWYRQAPGKERELVASISDSDTSTYYADSVKGRFTMSRDNAKNTVYLQMNSLKPEDTAVYYCNVDFWGQGTQVTVSS | low polyreactivity |
| QVQLVESGGGLVQAGGSLRLSCAASGSIFGSNTMGWYRQAPGKEREFVAAISFSGGSTYDADSVKGRFTISRDNAKNTVYLQMNSLKPEDTAVYYCAARQRRVGTSFYSSRRDYWGQGTQVTVSS | high polyreactivity |
| QVQHVESGAGLVQAGGSLRLSCAASGNTFTWYTRGWSRQAPGKERELVAVITSDGATYYADSVKGRFTISRDNAKNTVYLQMNSLKPEDTAVYYCNALSAEWYPEEDYWGQGTQVTVSS | low polyreactivity |
| QVQLVESGGGLVQARGSLRLSCAASGSIFTYNAMGWYRQAPGKERELVAAIDYSGGSTYYADSVKGRFTISRDNAKNTVYLQMKSLKPEDTAVYYCAAPWVPYPGYSLYGYDYWGQGTQVSVSS | low polyreactivity |
| QVQLVESGGGLVQAGGSLRLSCAASGLTFGFYAMGWYRQAPGKERELVAGISNGGSTNYADSVKGRFTISRDNAKNTVYLQMNSLKPEDTAVYYCAARLYARRLYDYWGQGTQVTVSS | low polyreactivity |
| QVQLVESGGGLVQAGGSLRLSCAASGITFVNYAMGWYRQAPGKERELVAAISGDGGNTYYADSVKGRFTISRDNAKNTVYLQMNSLKPEDTAVYYCAATPYLYRLYGYWYRPYYYWGQGTQVTVSS | high polyreactivity |
| QVQLVESGGGLDQAGGSRRLSCAASGITFGRNTMGWYRQSPGKERELVASISYSGTTTYYADSVKGRFTISPDNAKNTVYLQMNSLKPEDTAVYYCNKRWRYYDMDYWGQGTQVTVSS | low polyreactivity |

From the nanobody polyreactivity screen of Harvey et al. (2022)
